In the experiment the target is A/California/7/2009 HA (recombinant HA, rHA) (Influenza A virus A/California/07/2009 …, UniProt C3W5X2).

Consider one molecule from publication doi:10.1101/2021.02.25.432905 (bioRxiv, 2021).

B1: 350-145 (antibody, V domains shown)
VH: EVQLVESGGGLVQPGGSLRLSCSASGFTFSSYSMNWVRQAPGKGLEWLSYISSSSGSKYYADSVKGRFTISRDNAKNLVYLQMSSLRADDAAMYYCARSDYAVFYYGMDVWGQGTTVTVSS
VL: EIVMTQSPATLSVSPGERATLSCRASQSVSSNLAWYQQKPGQAPRLLIYGASTRATGIPARFSGSGSGTEFTLTISSLQSEDFAVYYCQQYYNWPPLTFGGGTKVEIK
B1: the binding result is “binds”.
